Patent US20210196794A1 (SUNSHINE LAKE PHARMA, published 2021)

Tests used:
[1] = molecular target: βKlotho protein (AVIVA SYSTEMS BIOLOGY); assay: ELISA on coated βKlotho, detection with anti-human IgG4 Fc-HRP, OD450
[2] = molecular target: βKlotho protein (AVIVA SYSTEMS BIOLOGY); assay: BLI (Octet RED 96), biotinylated βKlotho on streptavidin probe, fusion protein at 40 nM
[3] = molecular target: βKlotho protein (AVIVA SYSTEMS BIOLOGY); assay: BLI (Octet RED 96), biotinylated βKlotho on streptavidin probe

βKlotho protein (AVIVA SYSTEMS BIOLOGY), sequence (chain, as listed by the source): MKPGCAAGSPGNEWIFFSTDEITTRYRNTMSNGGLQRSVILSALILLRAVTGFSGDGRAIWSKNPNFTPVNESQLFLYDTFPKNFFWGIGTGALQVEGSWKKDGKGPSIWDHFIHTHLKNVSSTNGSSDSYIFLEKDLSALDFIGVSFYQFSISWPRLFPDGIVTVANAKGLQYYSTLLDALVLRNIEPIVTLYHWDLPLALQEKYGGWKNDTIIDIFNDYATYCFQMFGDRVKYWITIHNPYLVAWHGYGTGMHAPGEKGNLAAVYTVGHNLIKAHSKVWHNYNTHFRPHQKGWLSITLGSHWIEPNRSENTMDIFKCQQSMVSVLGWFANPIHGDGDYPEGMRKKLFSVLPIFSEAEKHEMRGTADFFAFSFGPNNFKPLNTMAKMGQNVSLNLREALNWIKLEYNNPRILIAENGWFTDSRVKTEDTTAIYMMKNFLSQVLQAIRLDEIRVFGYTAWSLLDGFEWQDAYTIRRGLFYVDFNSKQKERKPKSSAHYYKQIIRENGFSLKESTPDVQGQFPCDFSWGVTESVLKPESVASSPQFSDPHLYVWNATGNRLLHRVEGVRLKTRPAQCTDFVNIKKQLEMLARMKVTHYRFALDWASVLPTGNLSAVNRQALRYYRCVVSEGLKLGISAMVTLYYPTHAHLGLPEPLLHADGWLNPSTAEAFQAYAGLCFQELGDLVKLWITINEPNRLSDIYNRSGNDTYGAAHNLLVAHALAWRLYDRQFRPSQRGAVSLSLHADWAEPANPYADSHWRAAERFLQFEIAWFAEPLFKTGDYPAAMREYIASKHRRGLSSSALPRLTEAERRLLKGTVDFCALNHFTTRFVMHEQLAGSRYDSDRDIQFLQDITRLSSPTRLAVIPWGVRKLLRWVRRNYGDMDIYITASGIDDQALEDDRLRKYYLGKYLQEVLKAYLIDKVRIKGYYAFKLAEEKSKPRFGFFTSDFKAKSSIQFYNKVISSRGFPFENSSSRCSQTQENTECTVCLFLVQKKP

Row | Binder | EC50 (read off the curve) [1] | Kd [2] | Response values [2] | binding ability relative to S7 [3]
1 | fusion protein S5 (human IgG4 Fc - linker - FGF21 variant 98R, 167H, 171A, 175H) (Fc fusion) ESKYGPPCPPCPAPEAAGGPSVFLFPPKPKDTLMISRTPEVTCVVVDVSQEDPEVQFNWYVDGVEVHNAKTKPREEQFNSTYRVVSVLTVLHQDWLNGKEYKCKVSNKGLPSSIEKTISKAKGQPREPQVYTLPPSQEEMTKNQVSLTCLVKGFYPSDIAVEWESNGQPENNYKTTPPVLDSDGSFFLYSKLTVDKSRWQEGNVFSCSVMHEALHNHYTQKSLSLSLGGGGGSGGGGSGGGGSHPIPDSSPLLQFGGQVRQRYLYTDDAQQTEAHLEIREDGTVGGAADQSPESLLQLKALKPGVIQILGVKTSRFLCQRPDGALYGSLHFDPEACSFRERLLEDGYNVYQSEAHGLPLHLPGNKSPHRDPAPRGPARFLPLPGLPPALPEPPGILAPQPPDVGSSDPLHMVGASQGHSPSYAS | ~0.2 µg/mL | – | – | –
2 | fusion protein S4 (human IgG4 Fc - linker - FGF21 variant 98R, 167H, 171A, 175P) (Fc fusion) ESKYGPPCPPCPAPEAAGGPSVFLFPPKPKDTLMISRTPEVTCVVVDVSQEDPEVQFNWYVDGVEVHNAKTKPREEQFNSTYRVVSVLTVLHQDWLNGKEYKCKVSNKGLPSSIEKTISKAKGQPREPQVYTLPPSQEEMTKNQVSLTCLVKGFYPSDIAVEWESNGQPENNYKTTPPVLDSDGSFFLYSKLTVDKSRWQEGNVFSCSVMHEALHNHYTQKSLSLSLGGGGGSGGGGSGGGGSHPIPDSSPLLQFGGQVRQRYLYTDDAQQTEAHLEIREDGTVGGAADQSPESLLQLKALKPGVIQILGVKTSRFLCQRPDGALYGSLHFDPEACSFRERLLEDGYNVYQSEAHGLPLHLPGNKSPHRDPAPRGPARFLPLPGLPPALPEPPGILAPQPPDVGSSDPLHMVGASQGPSPSYAS | ~0.08 µg/mL | – | – | –
3 | fusion protein S2 (human IgG4 Fc - linker - FGF21 variant 98R, 167H, 171A, 175L) (Fc fusion) ESKYGPPCPPCPAPEAAGGPSVFLFPPKPKDTLMISRTPEVTCVVVDVSQEDPEVQFNWYVDGVEVHNAKTKPREEQFNSTYRVVSVLTVLHQDWLNGKEYKCKVSNKGLPSSIEKTISKAKGQPREPQVYTLPPSQEEMTKNQVSLTCLVKGFYPSDIAVEWESNGQPENNYKTTPPVLDSDGSFFLYSKLTVDKSRWQEGNVFSCSVMHEALHNHYTQKSLSLSLGGGGGSGGGGSGGGGSHPIPDSSPLLQFGGQVRQRYLYTDDAQQTEAHLEIREDGTVGGAADQSPESLLQLKALKPGVIQILGVKTSRFLCQRPDGALYGSLHFDPEACSFRERLLEDGYNVYQSEAHGLPLHLPGNKSPHRDPAPRGPARFLPLPGLPPALPEPPGILAPQPPDVGSSDPLHMVGASQGLSPSYAS | ~0.02 µg/mL | 0.429 nM | 0.19 | 2 fold
4 | fusion protein S1 (human IgG4 Fc - linker - FGF21 variant 98R, 167H, 171A) (Fc fusion, Purified from HEK293F cells by Protein A) ESKYGPPCPPCPAPEAAGGPSVFLFPPKPKDTLMISRTPEVTCVVVDVSQEDPEVQFNWYVDGVEVHNAKTKPREEQFNSTYRVVSVLTVLHQDWLNGKEYKCKVSNKGLPSSIEKTISKAKGQPREPQVYTLPPSQEEMTKNQVSLTCLVKGFYPSDIAVEWESNGQPENNYKTTPPVLDSDGSFFLYSKLTVDKSRWQEGNVFSCSVMHEALHNHYTQKSLSLSLGGGGGSGGGGSGGGGSHPIPDSSPLLQFGGQVRQRYLYTDDAQQTEAHLEIREDGTVGGAADQSPESLLQLKALKPGVIQILGVKTSRFLCQRPDGALYGSLHFDPEACSFRERLLEDGYNVYQSEAHGLPLHLPGNKSPHRDPAPRGPARFLPLPGLPPALPEPPGILAPQPPDVGSSDPLHMVGASQGRSPSYAS | ~0.02 µg/mL | 0.63 nM | 0.17 | –
5 | fusion protein S7 (human IgG4 Fc - linker - FGF21 variant 98R, 171A) (Fc fusion) ESKYGPPCPPCPAPEAAGGPSVFLFPPKPKDTLMISRTPEVTCVVVDVSQEDPEVQFNWYVDGVEVHNAKTKPREEQFNSTYRVVSVLTVLHQDWLNGKEYKCKVSNKGLPSSIEKTISKAKGQPREPQVYTLPPSQEEMTKNQVSLTCLVKGFYPSDIAVEWESNGQPENNYKTTPPVLDSDGSFFLYSKLTVDKSRWQEGNVFSCSVMHEALHNHYTQKSLSLSLGGGGGSGGGGSGGGGSHPIPDSSPLLQFGGQVRQRYLYTDDAQQTEAHLEIREDGTVGGAADQSPESLLQLKALKPGVIQILGVKTSRFLCQRPDGALYGSLHFDPEACSFRERLLEDGYNVYQSEAHGLPLHLPGNKSPHRDPAPRGPARFLPLPGLPPALPEPPGILAPQPPDVGSSDPLSMVGASQGRSPSYAS | – | 0.873 nM | 0.143 | –
